In PMC6769069:

Target: HybD endoprotease fused with peptide T18 of adenylate cyclase (pT18-hybD) (Escherichia coli) (UniProt P37182)
Experiment: two-hybrid; bacterial two-hybrid (adenylate cyclase fragments T25 and T18) in E. coli BTH101; T25 at the N-terminus of the large subunit variants, T18 fused with HybD; anaerobic growth in TGYEP medium pH 6.5 at 30°C for 16 h; β-galactosidase activity according to Miller

UniProt P37182, sequence (P37182 whole entry, the tested form may be a part): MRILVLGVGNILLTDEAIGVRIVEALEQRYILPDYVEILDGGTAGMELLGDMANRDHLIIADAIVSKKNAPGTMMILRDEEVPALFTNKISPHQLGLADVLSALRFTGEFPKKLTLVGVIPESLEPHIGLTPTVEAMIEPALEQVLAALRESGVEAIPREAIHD

β-galactosidase activity: 820 units
Substance: pro-HybC^§ fused to peptide T25 of adenylate cyclase (pT25-hybC^§) (from UniProt P0ACE0 2-552)
